What was measured:
human IL-17A [1] = target: T1, human IL-17A (human, UniProt Q16552 24-155); test: SPR (Biacore T200), direct setup: IL-17A amine-coupled on CM5, scFv as analyte
T1 construct: Recombinant human IL-17A (Peprotech Cat. No. 200-17), disulfide-linked homodimer from E. coli; Biotinylated or RPE-labelled in some assays; also called hIL-17A; IL-17A-RPE (labelled)
Description: (§1) After each analyte injection cycle the CAP sensor chip was regenerated and new antigen was captured. The scFvs were injected as analyte using a dose response multi-cycle kinetic assay with concentrations of the analyte ranging from 0.35 to 90 nM diluted in running buffer. Obtained sensorgrams were fitted using the 1:1 binding model. In addition, the scFvs were analyzed in an alternative SPR assay setup (“direct setup”).

human IL-17A [2] = target: T1, human IL-17A; test: SPR (Biacore T200), capture setup: biotinylated IL-17A captured, scFv as analyte
Description: as §1

cynomolgus monkey IL-17A [3] = target: T2, cynomolgus monkey IL-17A (Macaca fascicularis (cynomolgus monkey)); test: SPR (Biacore T200)
T2 construct: also called cyno IL-17A; cyno IL17A
Description: as §1

human IL-17A [4] = target: T1, human IL-17A; test: cell-based or functional assay
human IL-17A [5] = target: T1, human IL-17A; test: competitive ELISA: IL-17RA coated, biotinylated IL-17A preincubated with scFv
Description: Finally, Tetramethylbenzidin solution (KPL, Cat. No. 53-00-00) was added to develop the plate for 5 to 10 minutes and the reaction was stopped with 1 M HCl. The plate was read using a microtiter plate reader (Infinity reader M200 Pro, Tecan) at a wavelength of 450 nm and 570 nm (reference wavelength).

cynomolgus monkey IL-17A [6] = target: T2, cynomolgus monkey IL-17A; test: SPR (Biacore T200), cynomolgus IL-17A, scFv as analyte
Description: as §1

B1: A2 (humanized anti-IL-17A scFv, STR graft of 27-07-G02) (scFv)
scFv: DIQMTQSPSSLSASVGDRVTITCQASQTINYWLAWYQQKPGKPPKLLIYRASTLASGVPSRFSGSGSGTDFTLTISSLQPEDFATYYCQNYYYSTSRSYGFGGGTKLTVLGGGGGSGGGGSGGGGSGGGGSEVQLVESGGGLVKPEGSLRLSCAASGFSFSSDYWMCWVRQAPGKGLEWIACIYAGDVDDTDYASWARGRFTISRDNSKNTVYLQMNSLRAEDTAVYYCARVDGFDITYFDLWGQGTLVTVSS
notes: VL-linker-VH; also called 27-07-G02-sc02
Kd (human IL-17A [1]): 0.0551 nM | koff (human IL-17A [1]): 5.92e-05 s⁻¹ | kon (human IL-17A [1]): 1.08e+06 M⁻¹ s⁻¹ | Kd (human IL-17A [2]): 3.07 nM | koff (human IL-17A [2]): 0.000697 s⁻¹ | kon (human IL-17A [2]): 227000 M⁻¹ s⁻¹ | KD, cyno/KD, human (cynomolgus monkey IL-17A [3]): 1.69 | IC50 in HT-29 assay, GRO-α secretion (human IL-17A [4]): 0.1 ng/mL | IC50 (human IL-17A [5]): 1.6 ng/mL | Kd (cynomolgus monkey IL-17A [6]): 5.19 nM | koff (cynomolgus monkey IL-17A [6]): 0.000868 s⁻¹ | kon (cynomolgus monkey IL-17A [6]): 167000 M⁻¹ s⁻¹
